Reference: publication PMC3725505

These binders were tested against Kelch domain of human Keap1 (residues 321-609) (human), Q14145 (assay: ITC).
Kelch domain of human Keap1 (residues 321-609) (human), Q14145, sequence (Q14145 321-609): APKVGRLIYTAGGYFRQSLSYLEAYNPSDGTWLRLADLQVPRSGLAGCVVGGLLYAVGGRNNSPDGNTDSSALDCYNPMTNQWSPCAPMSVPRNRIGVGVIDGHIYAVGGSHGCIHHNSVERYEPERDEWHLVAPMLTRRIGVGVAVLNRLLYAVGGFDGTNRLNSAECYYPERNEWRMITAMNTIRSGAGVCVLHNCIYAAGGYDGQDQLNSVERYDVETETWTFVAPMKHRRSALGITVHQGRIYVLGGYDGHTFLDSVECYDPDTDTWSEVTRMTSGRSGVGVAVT

Binder | Kd [µM] | dH [kJ/mol] | stoichiometry N
FAQLQLDEETGEFLPIQPAQ (modifications not checked) [NRF2 site 1 peptide (20-mer)] | 0.023 | -71 | 1.08
LSSKEVDPSTGELQSLQMPE (modifications not checked) [p62 peptide (20-mer)] | 1.3 | – | –
ANGNAENEENGEQEADNEVD (modifications not checked) [PTMA isoform 1 peptide (20-mer)] | 11.6 | -61.7 | 1.07
FAQLQLDPETGEFLPIQPAQ (modifications not checked) [NRF2 site 1 E78P peptide (20-mer)] | 0.007 | -70.1 | –
ANGNANEENGEQEADNEVDE (modifications not checked) [PTMA isoform 2 peptide (20-mer)] | 2.62 | -72.3 | 1.05
